Source: the supplement of paper PMC7125110
± gives the standard error. Fewer inactive variants are shown than the library holds.

B1: glmS ribozyme (parent)
chain: AUAAAAGCGCCAGAACUACAGAAAUGUAGUUGACGAGGAGGAGGUUUAUCGAAUUUUCGGCGGAUGCCUCCAAA

What was measured:
Conditions in all cases: with glucosamine-6-phosphate
glucosamine-6-phosphate [1] = variants of: B1; test: self-cleavage kobs at 40 uM GlcN6P; higher = faster cleavage; RNA array
In short: (§1)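 Over ~14 h at 37 °C, tiles were imaged as glucosamine-6-phosphate (40 μM to 10 mM) in HEPES/KCl/Mg(OAc)2 buffer flowed across sequenced MiSeq chips. The chips carried barcoded ribozyme variants transcribed in situ by E. coli RNA polymerase and tracked with a hybridised Cy3 probe. After normalisation to baseline and to non-cleaving reference variants, one- or two-exponential decay fits of per-tile medians gave kobs. kcat and KM followed from weighted Michaelis–Menten fits across concentrations.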

glucosamine-6-phosphate [2] = variants of: B1; test: self-cleavage kobs at 160 uM GlcN6P; higher = faster cleavage; RNA array
In short: as §1

glucosamine-6-phosphate [3] = variants of: B1; test: self-cleavage kobs at 640 uM GlcN6P; higher = faster cleavage; RNA array
In short: as §1

glucosamine-6-phosphate [4] = variants of: B1; test: self-cleavage kobs at 2500 uM GlcN6P; higher = faster cleavage; RNA array
In short: as §1

glucosamine-6-phosphate [5] = variants of: B1; test: self-cleavage kobs at 10000 uM GlcN6P; higher = faster cleavage; RNA array
In short: as §1

Row | Variant | self-cleavage kobs at 40 uM GlcN6P (glucosamine-6-phosphate [1]) [s⁻¹] | self-cleavage kobs at 160 uM GlcN6P (glucosamine-6-phosphate [2]) [s⁻¹] | self-cleavage kobs at 640 uM GlcN6P (glucosamine-6-phosphate [3]) [s⁻¹] | self-cleavage kobs at 2500 uM GlcN6P (glucosamine-6-phosphate [4]) [s⁻¹] | self-cleavage kobs at 10000 uM GlcN6P (glucosamine-6-phosphate [5]) [s⁻¹]
1 | AUAAAAGCGCCAGAACUACAGAAAUGUAGUUGACGAGGAGGAGGUUUGCCGAAUUUUCGGCGGAUGCCUCCAAA | < 1e-05 | < 1e-05 | < 1e-05 | < 1e-05 | < 1e-05
2 | AUAAAAGCGCCAGAACUACAGAAAUGUAGUUGACGAGGAGGAGGUUUCUCAAAUUUUCGGCGGAUGCCUCCAAA | < 1e-05 | < 1e-05 | < 1e-05 | < 1e-05 | < 1e-05
3 | AUAAAAGCGCCAGAACUACAGAAAUGUAGUUGACGAGGAGGAGGUUUUUUGCAUUUUCGGCGCAUGCCUCUAAA | < 1e-05 | – | – | – | –
4 | AUAAAAGCGCCAGAACUACAGAAAUGUAGUUGACGAGGAGGAGGUGUUUCGAAUUUUCGGCGGAUGCUUCCAAA | < 1e-05 | – | – | – | –
5 | AUAAAAGCGCCAGAACUACAGAAAUGUAGUUGACGAGGAGGAGGUGUAUCCAAUUUUCGGCGGAUGGCUCCAAA | < 1e-05 | – | – | – | –
6 | AUAAAAGCGCCAGAACUACAGAAAUGUAGUUGACGAGGAGGAGGUAUAUCGUAUUUUCGGCGGAUGCCUCCAAA | < 1e-05 | < 1e-05 | – | – | –
7 | AUAAAAGCGCCAGAACUACAGAAAUGUAGUUGACGAGGAGGAGGUUAAUCGAACUUUCGGCGGAUGCCUCUAAA | 0.000577 ± 0.00018 | – | – | – | 0.0135 ± 0.0039
8 | AUAAAAGCGCCAGAACUACAGAAAUGUAGUUGACGAGGAGGAGGUUUGUCGAAUUUUCUGCGGAUGCCUCCAAA | < 1e-05 | – | – | – | –
9 | AUAAAAGCGCCAGAACUACAGAAAUGUAGUUGACGAGGAGGAGGUUUCUUGAAUUUUCGGCGGAUGCCUCCAAA | < 1e-05 | < 1e-05 | < 1e-05 | < 1e-05 | < 1e-05
10 | AUAAAAGCGCCAGAACUACAGAAAUGUAGUUGACGAGGAGGAGGUAUAUCGAAUUUUCGCCGGAUGCCUCCAAA | < 1e-05 | < 1e-05 | < 1e-05 | < 1e-05 | < 1e-05
11 | AUAAAAGCGCCAGAACUACAGAAAUGUAGUUGACGAGGAGGAGGUGUAUCGAAUUUUCGGCGGAUGCGUCGAAA | 9.54e-05 ± 3.1e-05 | – | – | – | –
12 | AUAAAAGCGCCAGAACUACAGAAAUGUAGUUGACGAGGAGGAGGUUAAUCGAAUUUGCGGCGGAUGCCUCCAAA | < 1e-05 | – | – | – | 4.75e-05 ± 8.7e-06
13 | AUAAAAGCGCCAGAACUACAGAAAUGUAGUUGACGAGGAGGAGGUUUCUCGAAUUUUCGGCGUAUGCCUCCAAA | < 1e-05 | – | < 1e-05 | < 1e-05 | < 1e-05
14 | AUAAAAGCGCCAGAACUACAGAAAUGUAGUUGACGAGGAGGAGGUGGAUCGAAUUUUCAGCGGAGGCCUCCAAA | < 1e-05 | – | – | – | –
15 | AUAAAAGCGCCAGAACUACAGAAAUGUAGUUGACGAGGAGGAGGGUUAUCGAAUUUUCGGCGGAUGCCACCAAA | 0.000333 ± 8.4e-05 | – | – | 0.000589 ± 0.00025 | 0.000362 ± 7.9e-05
16 | AUAAAAGCGCCAGAACUACAGAAAUGUAGUUGACGAGGAGGAGGUCUAUCGAAUUUUCGGCCGAUGCCUCCAAA | < 1e-05 | – | – | – | < 1e-05
17 | AUAAAAGCGCCAGAACUACAGAAAUGUAGUUGACGAGGAGGAGGUUCAUCGAUUUAUCCGCGGAUGCCUCCAAA | < 1e-05 | – | < 1e-05 | < 1e-05 | < 1e-05
18 | AUAAAAGCGCCAGAACUACAGAAAUGUAGUUGACGAGGAGGAGGUGUAUCGAAUUUUCGUCGGAUGCCUCCAAA | < 1e-05 | < 1e-05 | – | – | < 1e-05
19 | AUAAAAGCGCCAGAACUACAGAAAUGUAGUUGACGAGGAGGAGGUUUUUCGUAUUUUCGGCGGAUGACUCCAAA | < 1e-05 | – | – | – | < 1e-05
20 | AUAAAAGCGCCAGAACUACAGAAAUGUAGUUGACGAGGAGGAGGUUUGUCGAAUUUUCGCGGGAUGCCUCCAAA | < 1e-05 | – | – | – | –
21 | AUAAAAGCGCCAGAACUACAGAAAUGUAGUUGACGAGGAGGAGGUUUCUCGAAUUUUCGGCGGGUGCCUCCAAA | < 1e-05 | < 1e-05 | – | – | 6.31e-05 ± 1.3e-05
22 | AUAAAAGCGCCAGAACUACAGAAAUGUAGUUGACGAGGAGGAGGUUAAUCGAAUGUUCGGCGGAUGCCUCCAAA | 0.000473 ± 8.1e-05 | 0.000805 ± 0.00018 | 0.00869 ± 0.0018 | 0.0105 ± 0.0022 | 0.0152 ± 0.0031
23 | AUAAAAGCGCCAGAACUACAGAAAUGUAGUUGACGAGGAGGAGGUGUAUCGAACUUUCGGCGGAUGCCUCCAAA | 0.00019 ± 3.4e-05 | – | – | – | 0.00687 ± 0.0018
24 | AUAAAAGCGCCAGAACUACAGAAAUGUAGUUGACGAGGAGGAGGUAUAUGGAAUUUUCGGCGGAUGCCUCCAAA | < 1e-05 | – | – | < 1e-05 | < 1e-05
25 | AUAAAAGCGCCAGAACUACAGAAAUGUAGUUGACGAGGAGGAGGUCUGUAGAAUUUUCGGCGGAUGCCUCGAAA | < 1e-05 | – | – | – | –
26 | AUAAAAGCGCCAGAACUACAGAAAUGUAGUUGACGAGGAGGAGGUUUUUUGAAUUUUAGGCGGAUGCCUCCAAA | < 1e-05 | < 1e-05 | < 1e-05 | – | –
27 | AUAAAAGCGCCAGAACUACAGAAAUGUAGUUGACGAGGAGGAGGUAUCUCGAAUUUUCGGCGGAUGCCUCCAAA | < 1e-05 | – | – | – | –
28 | AUAAAAGCGCCAGAACUACAGAAAUGUAGUUGACGAGGAGGAGGUUCAUCGAGUUUUCGGCGGAUGCCUCCAAA | 0.000125 ± 2.2e-05 | 0.000176 ± 5.7e-05 | 0.00114 ± 0.00018 | 0.00477 ± 0.0011 | 0.00419 ± 0.00092
29 | AUAAAAGCGCCAGAACUACAGAAAUGUAGUUGACGAGGAGGAGGUUUCUCGAAUUUUCUGCGGAUGACUCCAAA | < 1e-05 | – | – | – | –
30 | AUAAAAGCGCCAGAACUACAGAAAUGUAGUUGACGAGGAGGAGGUUGAUCAAAUUUUCGGCGGAUGCCUCCAAA | < 1e-05 | – | – | – | –
